Earlier results as cited in article PMC11339341.
Where two headings read alike, the source gives them in different places.

Key:
[1] = target: IFNAR2 (Homo sapiens) (UniProt P48551)
[2] = target: IFNAR1 (Homo sapiens) (UniProt P17181)
[3] = target: IFNAR2 (Homo sapiens) (UniProt P48551); remark: listed apart in the source
[4] = target: IL-2Rβ:γc (Homo sapiens) (UniProt P14784)
[5] = target: IL-2Rβ (Homo sapiens) (UniProt P14784)
[6] = target: IL-2Rβ (Homo sapiens) (UniProt P14784); remark: listed apart in the source
[7] = target: IL-4Rα (Homo sapiens) (UniProt P24394)
[8] = target: IL-2Rβ (Homo sapiens) (UniProt P14784); remark: listed apart in the source
[9] = target: IL-2Rβ (Homo sapiens) (UniProt P14784); remark: listed apart in the source

UniProt P48551, sequence (P48551 27-243): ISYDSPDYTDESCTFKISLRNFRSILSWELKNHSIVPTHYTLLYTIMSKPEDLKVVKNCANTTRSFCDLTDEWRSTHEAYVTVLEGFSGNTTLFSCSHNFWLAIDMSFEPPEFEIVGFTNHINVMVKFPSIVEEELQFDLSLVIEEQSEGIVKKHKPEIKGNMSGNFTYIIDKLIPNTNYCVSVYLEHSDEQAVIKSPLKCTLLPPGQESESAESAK
UniProt P17181, sequence (P17181 28-436): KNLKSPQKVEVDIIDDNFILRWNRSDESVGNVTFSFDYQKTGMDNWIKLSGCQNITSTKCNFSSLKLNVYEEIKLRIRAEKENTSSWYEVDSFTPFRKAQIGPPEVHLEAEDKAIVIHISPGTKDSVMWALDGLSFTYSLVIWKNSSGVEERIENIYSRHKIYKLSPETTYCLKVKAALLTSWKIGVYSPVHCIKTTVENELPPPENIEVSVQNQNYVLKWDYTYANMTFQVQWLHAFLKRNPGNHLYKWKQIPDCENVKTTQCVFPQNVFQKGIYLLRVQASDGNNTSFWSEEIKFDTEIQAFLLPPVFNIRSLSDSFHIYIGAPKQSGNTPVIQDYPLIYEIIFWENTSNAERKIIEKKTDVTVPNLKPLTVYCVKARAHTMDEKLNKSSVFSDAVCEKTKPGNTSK

## IFNα1 (from UniProt P0DY56)
[1]
  Kd: 200 nM

## IFNβ (from UniProt P01574)
[2]
  Kd: 50 nM
[3]
  Kd: 0.2 nM

## IL-2 (from UniProt P60568)
[4]
  Kd: 1 nM
[5]
  Kd: 100 nM

## IL-2:IL-2Rα complex (from UniProt P60568)
[6]
  Kd: 0.03 nM

## IL-4 (from UniProt P05112)
[7]
  Kd: < 1 nM

## IL-15 (from UniProt P40933)
[8]
  Kd: 438 nM

## IL-15:IL-15Rα complex (from UniProt P40933)
[9]
  Kd: 3 nM
